According to patent US12686704B2, “Procoagulant peptides and use thereof” (RAMBAM MED-TECH LTD., priority 2021, dated 2026):
Where no end group is shown, it is not given here.

Columns and labels:
[1] = target: lipidated TF, factor VIIa, factor X (Homo sapiens, UniProt P13726); assay: Factor X activation assay of purified proteins (chromogenic substrate); type: biochemical; settings: peptides at 5 μg/ml and 10 μg/ml; compared to control; FIG. 1A
Description: FIGS. 1A-1C include vertical bar graphs and thromboelastography (TEG) curves, showing that peptide 16 and peptide 16AC increase coagulation. Peptide 16 and 16AC were studied in an assay of purified proteins that included lipidated TF (4 nM), factor VIIa (40 nM), factor X (1.4 μM) and assay buffer. Factor X activated form (Xa) level was studied using a chromogenic substrate (1 mM). […] Bovine factor Xa diluted in the assay buffer was used to generate a standard curve. Without addition of TF (two right columns), no factor Xa was generated. […] (1B) A citrated pooled normal human blood sample (n=3) was left for 4 hours at room temperature in order to expose TF in bloods cells. Following this period, the peptides 16 and 16AC were added (5 μg/ml) along with calcium. […] Representative TEG curves are shown. (1C) The study presented in FIG. 1B was repeated 3 times with different pooled plasma. […] Peptide 16 (non-modified); peptide 16 comprising a C-terminal amid group (16A); peptide 16 comprising an N-terminal acetyl group (16C); and peptide 16 comprising a C-terminal amid group and an N-terminal acetyl group (16AC). In 1B: for control—SP min=11.2; R min=12.8; K min=3.8, Angle deg=52.0; and MA mm=47.9, for Peptide 16—SP min=5.2; R min=6.4; K min=2.8, Angle deg=63.3; and MA mm=50.4, and for Peptide 16AC—SP min=4.7; R min=5.6; K min=2.5, Angle deg=63.1; and MA mm=53.8.
Peptides 16, 16C, 16A and 16AC were studied in an assay of purified proteins that included lipidated TF (0.004 μM), factor VIIa (0.04 μM), factor X (1.4 μM) and assay buffer. Factor X activated form (Xa) level was studied using a chromogenic substrate (1 mM). […] Bovine factor Xa diluted in the assay buffer was used to generate a standard curve. Without addition of TF (two right columns), no factor Xa was generated.

[2] = tested on: Hemophilic mice (VIII-KO mice); assay: Mouse-tail bleeding time model in hemophilic mice; type: in vivo; settings: subcutaneous 150-375 μg/kg; FIG. 3D
Description: FIGS. 3A-3D include vertical bar graphs showing that modified heparanase procoagulant peptides of the invention decrease bleeding in hemophilic mice. Hemophilic mice (VIII-KO mice; C57BL/6 background, strain name B6;129S4-F8tm1Kaz/J) were studied. (3A) Peptides 16 or 16AC were injected subcutaneously at the flank in doses 150, 225, 300, 375 μg/kg. A mouse-tail bleeding time model was performed. The peptides were dissolved in phosphate-buffered saline (PBS). Control (0) group was injected with the vehicle phosphate buffered saline (PBS). (3D) is identical to (3A) with the exception that peptide 16 C […] and peptide 16A […] were also administered in the disclosed doses. In a similar study, the peptides were topically applied on the tail immediately following the incision of the tail at a rate of a drop every 5 seconds (3B). […] Mann-Whitney U test was used. Results represent mean±SD. *p<0.05.
Hemophilic mice (VIII-KO mice; C57BL/6 background, strain name B6;129S4-F8tm1Kaz/J) were studied. Peptides 16 or 16AC were injected sub-cutis at the flank in doses 150, 225, 300, 375 μg/kg. A mouse-tail bleeding time model was performed. The peptides were dissolved in phosphate-buffered saline (PBS). Control (0) group was injected with the vehicle phosphate buffered saline (PBS) (FIGS. 3A and 3D). In a similar study, the peptides were topically applied on the tail immediately following the incision of the tail at a rate of a drop every 5 seconds (FIG. 3B).

lipidated TF, factor VIIa, factor X, sequence (P13726 33-295): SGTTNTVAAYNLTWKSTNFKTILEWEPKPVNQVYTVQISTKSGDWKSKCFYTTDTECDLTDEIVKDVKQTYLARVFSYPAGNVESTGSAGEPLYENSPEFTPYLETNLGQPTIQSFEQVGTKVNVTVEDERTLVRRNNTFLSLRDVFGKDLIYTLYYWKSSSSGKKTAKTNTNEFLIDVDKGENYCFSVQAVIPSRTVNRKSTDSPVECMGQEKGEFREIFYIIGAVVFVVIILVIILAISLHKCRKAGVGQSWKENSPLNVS
lipidated TF, factor VIIa, factor X, sequence (P08709 61-212 partner limits assumed): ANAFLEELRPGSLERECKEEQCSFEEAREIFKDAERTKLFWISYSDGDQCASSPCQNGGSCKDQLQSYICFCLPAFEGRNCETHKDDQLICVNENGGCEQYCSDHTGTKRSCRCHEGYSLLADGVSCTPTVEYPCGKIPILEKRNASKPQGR
lipidated TF, factor VIIa, factor X, sequence (P08709 213-466 partner limits assumed): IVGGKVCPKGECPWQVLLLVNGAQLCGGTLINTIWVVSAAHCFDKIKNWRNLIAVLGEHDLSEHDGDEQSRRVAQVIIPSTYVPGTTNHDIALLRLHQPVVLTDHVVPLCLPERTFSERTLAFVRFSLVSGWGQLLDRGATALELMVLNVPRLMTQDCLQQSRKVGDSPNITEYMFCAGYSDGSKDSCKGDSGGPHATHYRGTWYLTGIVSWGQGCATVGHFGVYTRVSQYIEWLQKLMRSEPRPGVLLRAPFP

Substance: GSKRRKLRVYLHCT-amid (GSKRRKLRVYLHCT-NH2) [Peptide 16A, peptide 16 comprising a C-terminal amid group]
- activation of factor X (factor Xa level) [1]: significantly increased activation of factor X compared to control
- bleeding time reduction, comparison between peptides [2]: significant better effect to reduce the bleeding time compared to peptide 16 and peptide 16C

Substance: acetyl-GSKRRKLRVYLHCT (Ac-GSKRRKLRVYLHCT) [Peptide 16C, peptide 16 comprising an N-terminal acetyl group]
- activation of factor X (factor Xa level) [1]: significantly increased activation of factor X compared to control
